Reference: IntAct's records for PubMed 12626503

B1: Rho guanine nucleotide exchange factor 7 (Mus musculus), Q9ES28-2 (parent)
chain: MNSAEQTVTWLITLGVLESPKKTISDPEVFLQASLKDGVVLCRLLERLLPGTIEKVYPEPRNESECLSNIREFLRACGASLRLETFDANDLYQGQNFNKVLSSLVTLNKVTADIGLGSDSVCARPSSHRIKSFDSLGSQSSHSRTSKLLQSQYRSLDMTDNTNSQLVVRAKFNFQQTNEDELSFSKGDVIHVTRVEEGGWWEGTHNGRTGWFPSNYVREIKPSEKPVSPKSGTLKSPPKGFDTTAINKSYYNVVLQNILETEHEYSKELQSVLSTYLRPLQTSDKLSSANTSYLMGNLEEISSFQQVLVQSLEECTKSPEAQQRVGGCFLSLMPQMRTLYLAYCANHPSAVSVLTEHSEDLGEFMETKGASSPGILVLTTGLSKPFMRLDKYPTLLKELERHMEDYHPDRQDIQKSMTAFKNLSAQCQEVRKRKELELQILTEPIRSWEGDDIKTLGSVTYMSQVTIQCAGSEEKNERYLLLFPNLLLMLSASPRMSGFIYQGKLPTTGMTITKLEDSENHRNAFEISGSMIERILVSCTSQQDLHEWVEHLQKQTKVTSVSNPTIKPHSVPSHTLPSHPLTPSSKHADSKPVALTPAYHTLPHPSHHGTPHTTISWGPLEPPKTPKPWSLSCLRPAPPLRPSAALCYKEDLSKSPKTMKKLLPKRKPERKPSDEEFAVRKSTAALEEDAQILKVIEAYCTSAKTRQTLNSSSRKESAPQVLLPEEEKIIVEETKSNGQTVIEEKSLVDTVYALKDEVQELRQDNKKMKKSLEEEQRARKDLEKLVRKVLKNMNDPAWDETNL
B2: Rho guanine nucleotide exchange factor 7 (Mus musculus), Q9ES28-2 (parent)
chain: B1 chain
partner: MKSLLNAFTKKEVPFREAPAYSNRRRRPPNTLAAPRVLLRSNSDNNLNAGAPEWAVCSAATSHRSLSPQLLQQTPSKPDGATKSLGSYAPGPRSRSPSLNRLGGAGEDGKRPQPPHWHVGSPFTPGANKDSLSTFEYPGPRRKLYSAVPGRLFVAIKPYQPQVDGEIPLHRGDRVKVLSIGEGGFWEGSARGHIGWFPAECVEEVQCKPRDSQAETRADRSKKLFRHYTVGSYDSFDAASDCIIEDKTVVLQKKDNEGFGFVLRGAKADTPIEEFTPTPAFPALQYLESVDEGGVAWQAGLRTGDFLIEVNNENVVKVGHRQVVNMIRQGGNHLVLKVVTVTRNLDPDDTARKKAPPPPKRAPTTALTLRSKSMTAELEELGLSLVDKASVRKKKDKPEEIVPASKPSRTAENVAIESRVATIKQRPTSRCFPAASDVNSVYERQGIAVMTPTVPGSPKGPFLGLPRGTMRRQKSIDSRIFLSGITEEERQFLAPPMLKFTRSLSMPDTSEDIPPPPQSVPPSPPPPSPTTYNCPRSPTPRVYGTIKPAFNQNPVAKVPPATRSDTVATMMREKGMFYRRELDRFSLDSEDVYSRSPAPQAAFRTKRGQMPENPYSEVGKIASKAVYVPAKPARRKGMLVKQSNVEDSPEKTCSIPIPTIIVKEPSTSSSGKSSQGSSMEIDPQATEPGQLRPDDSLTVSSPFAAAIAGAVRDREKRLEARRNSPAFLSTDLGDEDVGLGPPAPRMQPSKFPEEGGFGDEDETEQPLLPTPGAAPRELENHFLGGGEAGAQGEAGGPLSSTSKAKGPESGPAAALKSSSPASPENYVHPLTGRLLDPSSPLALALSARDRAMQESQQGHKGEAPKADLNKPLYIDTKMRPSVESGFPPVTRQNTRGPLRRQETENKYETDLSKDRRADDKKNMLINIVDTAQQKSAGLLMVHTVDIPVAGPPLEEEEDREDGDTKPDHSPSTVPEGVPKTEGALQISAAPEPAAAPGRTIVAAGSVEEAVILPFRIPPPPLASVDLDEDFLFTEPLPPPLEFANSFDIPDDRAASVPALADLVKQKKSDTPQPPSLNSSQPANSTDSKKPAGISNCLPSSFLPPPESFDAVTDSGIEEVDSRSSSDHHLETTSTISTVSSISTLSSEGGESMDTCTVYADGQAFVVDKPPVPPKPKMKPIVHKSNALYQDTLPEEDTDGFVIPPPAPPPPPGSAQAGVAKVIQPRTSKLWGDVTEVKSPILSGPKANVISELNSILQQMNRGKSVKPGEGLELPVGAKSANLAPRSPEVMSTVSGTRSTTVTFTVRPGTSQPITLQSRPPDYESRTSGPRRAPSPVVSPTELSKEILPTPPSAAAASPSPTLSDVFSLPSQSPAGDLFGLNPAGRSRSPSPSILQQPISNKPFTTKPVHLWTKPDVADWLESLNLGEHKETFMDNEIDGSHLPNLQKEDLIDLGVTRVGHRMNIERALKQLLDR

Variants of: B1
Details: with shan1_rat Shank1, Q9WV48
shan1_rat Shank1, Q9WV48, sequence (Q9WV48 whole entry): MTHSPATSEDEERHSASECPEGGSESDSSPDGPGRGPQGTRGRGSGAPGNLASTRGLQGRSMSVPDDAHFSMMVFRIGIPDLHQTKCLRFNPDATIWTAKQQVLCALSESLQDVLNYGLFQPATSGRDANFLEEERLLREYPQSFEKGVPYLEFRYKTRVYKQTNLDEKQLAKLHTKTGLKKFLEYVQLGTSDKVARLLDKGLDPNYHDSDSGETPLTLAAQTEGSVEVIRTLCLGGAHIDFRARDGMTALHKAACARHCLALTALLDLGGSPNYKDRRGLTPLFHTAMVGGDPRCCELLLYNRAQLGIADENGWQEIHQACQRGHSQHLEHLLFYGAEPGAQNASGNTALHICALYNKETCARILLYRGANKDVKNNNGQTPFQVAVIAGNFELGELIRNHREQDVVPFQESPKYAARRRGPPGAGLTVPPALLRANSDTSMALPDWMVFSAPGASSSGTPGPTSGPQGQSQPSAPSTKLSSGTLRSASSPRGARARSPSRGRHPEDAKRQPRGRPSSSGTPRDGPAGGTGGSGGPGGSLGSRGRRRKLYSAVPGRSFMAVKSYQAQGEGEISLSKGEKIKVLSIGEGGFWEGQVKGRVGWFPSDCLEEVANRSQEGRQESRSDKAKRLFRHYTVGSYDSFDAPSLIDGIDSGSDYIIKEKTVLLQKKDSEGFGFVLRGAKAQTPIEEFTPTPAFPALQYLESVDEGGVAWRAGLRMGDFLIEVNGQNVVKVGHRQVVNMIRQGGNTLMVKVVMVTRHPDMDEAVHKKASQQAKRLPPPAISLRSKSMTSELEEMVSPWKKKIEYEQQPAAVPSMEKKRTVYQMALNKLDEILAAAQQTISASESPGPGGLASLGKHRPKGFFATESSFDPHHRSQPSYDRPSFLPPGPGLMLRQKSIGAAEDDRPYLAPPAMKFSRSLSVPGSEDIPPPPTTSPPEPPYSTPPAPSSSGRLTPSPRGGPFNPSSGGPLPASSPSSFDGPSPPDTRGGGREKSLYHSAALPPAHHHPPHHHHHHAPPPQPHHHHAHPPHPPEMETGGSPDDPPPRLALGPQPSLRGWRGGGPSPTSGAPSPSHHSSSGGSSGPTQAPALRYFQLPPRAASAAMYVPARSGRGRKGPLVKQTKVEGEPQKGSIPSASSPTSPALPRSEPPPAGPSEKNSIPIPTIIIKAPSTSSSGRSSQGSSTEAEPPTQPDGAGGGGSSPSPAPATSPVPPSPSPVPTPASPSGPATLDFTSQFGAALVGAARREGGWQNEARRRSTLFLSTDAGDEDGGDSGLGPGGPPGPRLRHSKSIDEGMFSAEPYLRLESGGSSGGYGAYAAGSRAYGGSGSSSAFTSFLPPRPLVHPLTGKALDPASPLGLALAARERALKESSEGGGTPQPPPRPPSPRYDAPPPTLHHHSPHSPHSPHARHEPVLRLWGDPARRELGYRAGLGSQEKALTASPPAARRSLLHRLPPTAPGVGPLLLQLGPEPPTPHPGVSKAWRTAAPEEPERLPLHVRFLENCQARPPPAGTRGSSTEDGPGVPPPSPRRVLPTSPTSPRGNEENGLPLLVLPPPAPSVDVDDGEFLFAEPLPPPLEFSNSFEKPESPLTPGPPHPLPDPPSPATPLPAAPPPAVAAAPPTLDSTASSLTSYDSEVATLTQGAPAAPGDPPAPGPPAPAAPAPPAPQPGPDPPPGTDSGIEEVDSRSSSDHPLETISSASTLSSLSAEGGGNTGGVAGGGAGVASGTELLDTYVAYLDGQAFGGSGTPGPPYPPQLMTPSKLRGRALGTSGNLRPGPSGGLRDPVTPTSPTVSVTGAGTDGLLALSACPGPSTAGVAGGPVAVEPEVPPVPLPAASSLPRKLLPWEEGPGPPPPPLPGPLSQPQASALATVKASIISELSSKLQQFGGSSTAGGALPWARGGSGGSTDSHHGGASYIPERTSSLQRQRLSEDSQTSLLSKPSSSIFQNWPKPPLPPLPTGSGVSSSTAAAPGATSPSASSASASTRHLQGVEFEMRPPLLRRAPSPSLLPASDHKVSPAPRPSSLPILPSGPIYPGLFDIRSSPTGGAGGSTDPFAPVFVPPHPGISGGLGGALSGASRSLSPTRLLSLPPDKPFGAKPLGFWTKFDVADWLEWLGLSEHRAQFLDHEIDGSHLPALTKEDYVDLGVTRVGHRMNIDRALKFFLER

| Variant | effect of a mutation on the interaction |
| --- | --- |
| L646A | disrupting interaction |

Variants of: B2
Details: with shan2_rat Shank2, Q9QX74

| Variant | effect of a mutation on the interaction |
| --- | --- |
| L646A | disrupting interaction |
